Assay results reported in ChEMBL document CHEMBL4613261, “Metabolic and Pharmaceutical Aspects of Fluorinated Compounds” (J Med Chem, 2020).

B1: Alanine racemase, biosynthetic (Escherichia coli K-12), P0A6B4 (protein)
chain: MQAATVVINRRALRHNLQRLRELAPASKMVAVVKANAYGHGLLETARTLPDADAFGVARLEEALRLRAGGITKPVLLLEGFFDARDLPTISAQHFHTAVHNEEQLAALEEASLDEPVTVWMKLDTGMHRLGVRPEQAEAFYHRLTQCKNVRQPVNIVSHFARADEPKCGATEKQLAIFNTFCEGKPGQRSIAASGGILLWPQSHFDWVRPGIILYGVSPLEDRSTGADFGCQPVMSLTSSLIAVREHKAGEPVGYGGTWVSERDTRLGVVAMGYGDGYPRAAPSGTPVLVNGREVPIVGRVAMDMICVDLGPQAQDKAGDPVILWGEGLPVERIAEMTKVSAYELITRLTSRVAMKYVD
B2: (Rattus norvegicus) (protein)
chain: MAQTPAFNKPKVELHVHLDGAIKPETILYYGKKRGIDLPADTVEGLRNIIGMDKPLSLPDFLAKFDYYMPAIAGCREAIKRIAYEFVEMKAKEGVVYVEVRYSPHLLANSKVDPIPWNQAEGDLTPDEVVDLVNQGLQEGEQAFGIKVRSILCCMRHQPSWSPEVLELCKKYHQKTVVAMDLAGDETIEGSSLFPGHVEAYEGAVKDGIHRTVHAGEVGSAEVVREAVDILKTERVGHGYHTIEDEALYNRLLKENMHFEVCPWSSYLTGAWNPKTTHAVVRFKDDQANYSLNSDDPLIFKSTVDTDYQMVKKDMGFTEEEFKRLNINAAKSSFLPEDEKKELLERLYKEYQ

How the values were obtained:
[1] = substrate: C[C@H](N)C(=O)O; conditions: Escherichia coli B
Description: (§2) Substrate activity at Escherichia coli B alanine racemase assessed as Km

[2] = substrate: N[C@@H](CF)C(=O)O; conditions: Escherichia coli B
Description: as §2

[3] = substrate: N[C@H](CF)C(=O)O; conditions: Escherichia coli B
Description: as §2

[4] = substrate: OC[C@@H]1CC[C@H](n2cnc3c(Br)ncnc32)O1; test: (§1) Prodrug conversion in rat blood assessed as Km for adenosine deaminase-mediated didanosine formation by HPLC analysis; type: ADME, tissue-based
[5] = substrate: OC[C@@H]1CC[C@H](n2cnc3c(Cl)ncnc32)O1; test: as §1; type: ADME, tissue-based
[6] = substrate: OC[C@@H]1CC[C@H](n2cnc3c(F)ncnc32)O1; test: as §1; type: ADME, tissue-based

Protein	Km [1] [µM]	Km [2] [µM]	Km [3] [µM]	Km [4] [µM]	Km [5] [µM]	Km [6] [µM]
B1	1300	50	2400	–	–	–
B2	–	–	–	16000	17000	720
